These results are taken from publication PMC5967865 (eLife, 2018).

Substitutions are numbered along the chain they refer to.

The labels stand for the following.
B1: Sb_GlyT1#5 (VHH)
VHH: QVQLVESGGGLVQAGGSLRLSCAASGFPVMNRWMAWYRQAPGKEREWVAAVASYGETTRYADSVKGRFTISRDNAKNTVYLQMNSLKPEDTAVYYCNVKDWGWWTRAYDYWGQGTQVTVS
B2: Sb_GlyT1#6 (VHH)
VHH: QVQLVESGGGLVQAGGSLRLSCAASGFPVVYYEMYWYRQAPGKEREWVAAITSSGWYTHYADSVKGRFTISRDNAKNTVYLQMNSLKPEDTAVYYCNVKDWGASWKQYDYWGQGTQVTVS
B3: Sb_GlyT1#7 (VHH)
VHH: B2 VHH with V30Y, Y31A, T52S, W56T, Y57W, T58A, H59G, K106A, Q107Y
B4: Sb_GlyT1#1 (VHH)
VHH: QVQLVESGGGLVQAGGSLRLSCAASGFPVYYSHMLWYRQAPGKEREWVAAIKSLGAKTWYADSVKGRFTISRDNAKNTVYLQMNSLKPEDTAVYYCTVGVGTNYYGQGTQVTVS
B5: Sb_GlyT1#2 (VHH)
VHH: B4 VHH with Y31H, S32R, H33S, L54N, K57G, Y105W
B6: Sb_GlyT1#3 (VHH)
VHH: QVQLVESGGGLVQAGGSLRLSCAASGFPVWNNGMAWYRQAPGKEREWVAAIASRGRSTVYADSVKGRFTISRDNAKNTVYLQMNSLKPEDTAVYYCYVNVGSHYEGQGTQVTVS
B7: Sb_GlyT1#4 (VHH)
VHH: QVQLVESGGGLVQAGGSLRLSCAASGFPVYAYVMAWYRQAPGKEREWVAAIKSQGVSTYYADSVKGRFTISRDNAKNTVYLQMNSLKPEDTAVYYCYVYVGTSYTGQGTQVTVS
B8: Sb_ENT1#1 (VHH)
VHH: QVQLVESGGGLVQAGGSLRLSCAASGFPVEYNTMYWYRQAPGKEREWVATIESWGWFTWYADSVKGRFTISRDNAKNTVYLQMNSLKPEDTAVYYCEVGVGHNYAGRGTQVTVS
notes: concave sybody; source: purified (Ni-NTA, SEC); not shown: Myc, C-terminal, kept

In general, Kd refers to the free concentration of one partner at which half of the binding sites on the other are occupied at equilibrium, for simple one-to-one binding. The low end stands for tighter binding, the high end for weaker binding. One may read the koff as the first-order rate constant of dissociation. A lower koff goes with slow dissociation. The kon is the second-order rate constant of association. The low end stands for slower complex formation, the high end for faster complex formation.

The first data set concerns the target Human GlyT1 (human) (UniProt P48067).
Assay: not given
Conditions: not given
For B1, the SPA signal (fold increase) of [3H]-Org24598 binding at 19°C worked out at 1.5 fold and the ΔTm(SPA-TS): shift of the melting temperature of GlyT1, read by binding of [3H]-Org24598 was determined as 2.6 °C.

Turning to B2, the SPA signal (fold increase) of [3H]-Org24598 binding at 19°C stood at 1.6 fold and the ΔTm(SPA-TS): shift of the melting temperature of GlyT1, read by binding of [3H]-Org24598 is 8.8 °C.

Consider B3, for which the SPA signal (fold increase) of [3H]-Org24598 binding at 19°C is 1.8 fold and the ΔTm(SPA-TS): shift of the melting temperature of GlyT1, read by binding of [3H]-Org24598 was determined as 10 °C.

Consider B4, for which the SPA signal (fold increase) of [3H]-Org24598 binding at 19°C stood at 1.2 fold and the ΔTm(SPA-TS): shift of the melting temperature of GlyT1, read by binding of [3H]-Org24598 was determined as 0.9 °C.

As to B5, the SPA signal (fold increase) of [3H]-Org24598 binding at 19°C worked out at 1.1 fold and the ΔTm(SPA-TS): shift of the melting temperature of GlyT1, read by binding of [3H]-Org24598 stood at 1.5 °C.

As to B6, the SPA signal (fold increase) of [3H]-Org24598 binding at 19°C is 1.1 fold and the ΔTm(SPA-TS): shift of the melting temperature of GlyT1, read by binding of [3H]-Org24598 was determined as 1.7 °C.

On to B7, for which the SPA signal (fold increase) of [3H]-Org24598 binding at 19°C came out at 1.5 fold and the ΔTm(SPA-TS): shift of the melting temperature of GlyT1, read by binding of [3H]-Org24598 was found to be 2.1 °C.

In a further data set the target is T1, Human ENT1(2–456) (Homo sapiens, UniProt Q99808, biotin on the Avi-tag (in vivo, co-transfected E. coli BirA); glycosylation reduced with PNGaseF and Endo-alpha-N-acetylgalactosaminidase). The data set is described as follows: cell-based or functional assay.
T1 sequence (Q99808 2-456): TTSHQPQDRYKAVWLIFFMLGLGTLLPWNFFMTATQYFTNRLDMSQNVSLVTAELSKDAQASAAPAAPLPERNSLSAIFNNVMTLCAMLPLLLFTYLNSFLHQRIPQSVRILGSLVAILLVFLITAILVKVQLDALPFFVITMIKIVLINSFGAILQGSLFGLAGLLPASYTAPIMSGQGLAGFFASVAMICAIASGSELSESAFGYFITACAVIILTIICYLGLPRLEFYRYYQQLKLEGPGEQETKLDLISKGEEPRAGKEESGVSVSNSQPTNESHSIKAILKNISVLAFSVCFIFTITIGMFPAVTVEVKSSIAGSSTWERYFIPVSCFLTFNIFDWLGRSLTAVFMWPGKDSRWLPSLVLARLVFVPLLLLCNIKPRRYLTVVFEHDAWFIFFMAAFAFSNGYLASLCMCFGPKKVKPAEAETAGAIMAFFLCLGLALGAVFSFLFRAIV
Conditions: not given
As to B8, the “SPA signal (fold increase) of [3H]-NBTI binding at 30.1°C” value was determined as 7 fold and the “ΔTm(SPA-TS): shift of the apparent melting temperature of ENT1, read by binding of [3H]-NBTI” value turned out to be 6.1 °C.

Another data set has as its target T2, human GlyT1 (Homo sapiens, UniProt P48067).
T2 construct: gene SLC6A9; Sf9 cells; LMNG/CHS; purified with Cmpd1
T2 sequence (P48067 1-706): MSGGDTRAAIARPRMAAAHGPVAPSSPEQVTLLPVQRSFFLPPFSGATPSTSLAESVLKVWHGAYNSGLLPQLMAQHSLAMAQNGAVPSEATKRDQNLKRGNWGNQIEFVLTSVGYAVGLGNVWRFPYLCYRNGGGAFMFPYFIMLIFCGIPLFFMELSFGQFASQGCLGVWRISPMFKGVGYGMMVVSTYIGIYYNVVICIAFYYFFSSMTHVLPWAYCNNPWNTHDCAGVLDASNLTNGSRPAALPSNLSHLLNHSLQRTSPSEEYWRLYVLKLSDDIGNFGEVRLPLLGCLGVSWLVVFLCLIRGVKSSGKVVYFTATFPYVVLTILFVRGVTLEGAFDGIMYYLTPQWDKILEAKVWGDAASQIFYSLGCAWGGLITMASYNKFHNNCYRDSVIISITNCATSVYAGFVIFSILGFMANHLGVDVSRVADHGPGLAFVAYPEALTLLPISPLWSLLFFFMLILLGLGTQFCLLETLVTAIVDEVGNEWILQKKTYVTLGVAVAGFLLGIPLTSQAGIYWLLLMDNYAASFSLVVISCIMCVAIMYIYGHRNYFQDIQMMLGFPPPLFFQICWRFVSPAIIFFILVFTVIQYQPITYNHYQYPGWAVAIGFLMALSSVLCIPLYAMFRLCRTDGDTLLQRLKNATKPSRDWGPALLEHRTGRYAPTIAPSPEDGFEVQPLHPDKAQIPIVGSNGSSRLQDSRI
Assay: not given
The format is binding. Particulars: 6 nM [3H]-Org24598, labelled compound, 4°C, LMNG; citrate pH 6.4 (buffer assignment by 'respectively'); with and without sybodies.
For `CN(CC[C@@H](Oc1ccc(C(F)(F)F)cc1)c1ccccc1)CC(=O)O` [Org24598], the “scintillation proximity assay (SPA-TS) with [3H]-Org24598” value was “SPA-TS analysis using the commercially available tritiated inhibitor Org24598”.

A further data set has as its target T1, Human ENT1(2–456). The experiment in a line: SPR; Biacore T200, 18°C; biotinylated ENT1 (about 1000 RU) on SA sensor, sybody up to 475 nM as analyte; 20 mM HEPES pH 7.5, 150 mM NaCl, 0.001% LMNG, 1.25 µM DOPS; 50 µl/min; 1:1 model. The following applies: both partners purified.
Molecule B8 had a dissociation constant (Kd) of 40 nM, a koff of 0.00744 s⁻¹ and a kon of 186000 M⁻¹ s⁻¹.

Another data set addresses Human GlyT1 (human) (UniProt P48067). The data set is described as follows: SPR; Biacore T200, 18°C; biotinylated GlyT1 (about 300 RU) on SA sensor, sybody up to 2 µM as analyte; 20 mM Citrate pH 6.4, 150 mM NaCl, 0.004% LMNG; 50 µl/min; 1:1 model; single cycle for Sb_GlyT1#6; KD from kinetics or from equilibrium as the column says.
Conditions: not given
On the technique in general: SPR reads the build-up and loss of mass on a sensor chip optically.
B1 had a Kd of 81.9 nM, a koff of 0.0372 s⁻¹ and an on-rate (kon) of 454000 M⁻¹ s⁻¹.

For B2, the dissociation constant (Kd) is 0.494 nM, the koff was 4.99e-05 s⁻¹ and the kon is 100000 M⁻¹ s⁻¹.

As to B3, the equilibrium dissociation constant (Kd) stood at 9.18 nM, the koff worked out at 0.000185 s⁻¹ and the on-rate constant (kon) amounted to 20100 M⁻¹ s⁻¹.

B4 showed a Kd of 307 nM, a koff of 0.0577 s⁻¹ and a kon of 188000 M⁻¹ s⁻¹.

Turning to B5, the Kd amounted to 2520 nM, the dissociation rate constant (koff) is 0.0928 s⁻¹ and the kon amounted to 36800 M⁻¹ s⁻¹.

Consider B6, for which the equilibrium dissociation constant (Kd) was determined as 154 nM.

For the molecule B7, the Kd worked out at 476 nM.

For another data set, the target named is GFP [GFP: P42212]. The data set is described as follows: pull-down; nanobody or sybody displayed on ribosomes (PUREfrexSS; 10^6 mRNA of 3K1K spiked into 10^12 mRNA of the non-randomized convex sybody), pulled down with biotinylated GFP or MBP immobilized on magnetic beads; retrieved mRNA reverse transcribed and quantified by qPCR against the input mRNA.
Conditions: not given
Background: In qPCR the cycle at which signal appears reflects the starting amount.
The molecule 3K1K nanobody (VHH) had a mRNA recovery (percent of input mRNA) of 84.6%.
